# US20240425846A1
# How the values were obtained:
# [1] = target: biotinylated human Her2 (HE2-H822R, Acro Biosystems) (human) (UniProt P04626); test: deep screening, equilibrium fit
# [2] = target: biotinylated human Her2 (HE2-H822R, Acro Biosystems) (human) (UniProt P04626); test: flow cell kinetic dissociation, ribosome-displayed scFv, buffer wash after Her2-biotin/AF532-streptavidin
# [3] = target: biotinylated human Her2 (HE2-H822R, Acro Biosystems) (human) (UniProt P04626); test: deep screening, equilibrium fit (column DS KD (M))
# [4] = target: biotinylated human Her2 (HE2-H822R, Acro Biosystems) (human) (UniProt P04626); test: deep screening ('HER2affmat'), ribosome-displayed scFv on flow cell, 5 minutes of wash after 100 nM Her2-biotin:AF532-streptavidin
# [5] = target: biotinylated human Her2 (HE2-H822R, Acro Biosystems) (human) (UniProt P04626); test: deep screening, equilibrium fit (column DS KD (M)); remark: listed apart in the source
# [6] = target: biotinylated human Her2 (HE2-H822R, Acro Biosystems) (human) (UniProt P04626); test: deep screening, biphasic dissociation fit, phase 2
# [7] = target: biotinylated human Her2 (HE2-H822R, Acro Biosystems) (human) (UniProt P04626); test: deep screening, biphasic dissociation fit, phase 1
# [8] = target: biotinylated human Her2 (HE2-H822R, Acro Biosystems) (human) (UniProt P04626); test: flow cell equilibrium binding, ribosome-displayed scFv, 0.03-100 nM Her2-biotin and 100 nM AF532-streptavidin
# [9] = target: biotinylated human Her2 (HE2-H822R, Acro Biosystems) (human) (UniProt P04626); test: BLI (Octet), Her2-biotin on streptavidin tip, Fab at 20 nM, 1:1 fit; the filing doubts the fit because the response was low
Kd [1],koff [2],Kd [3],fluorescent intensity at the 5-minute wash step [4],Kd [5],koff [6],koff [7],Kd [8],Kd [9],Binder
886 nM,0.000567 s⁻¹,24 nM,190,887 nM,0.0134 s⁻¹,7.03e-05 s⁻¹,16.2 nM,,Her2_G98A scFv (scFv) scFv: MQVQLVQSGAEVKKPGESLKISCKGSGYSFTSYWIAWVRQMPGKGLEYMGLIYPGDSDTKYSPSFQGQVTISVDKSVSTAYLQWSSLKPSDSAVYFCARHDVAYCSSSNCAKWPEYFQHWGQGTLVTVSSGGGGSGGGGSGGGGSQSVLTQPPSVSAAPGQKVTISCSGSSSNIGNNYVSWYQQLPGTAPKLLIYGHTNRPAGVPDRFSGSKSGTSASLAISGFRSEDEADYYCASWDYTLSGWVFGGGTKLTVLGYMASGAEFGSGGQKQAEEAAAKAAADAKAKAEADAKAAEEAAKKAAADAKKKAEA
,,,,,,,,46.9 nM,G98A Fab (Fab) VH: MQVQLVQSGAEVKKPGESLKISCKGSGYSFTSYWIAWVRQMPGKGLEYMGLIYPGDSDTKYSPSFQGQVTISVDKSVSTAYLQWSSLKPSDSAVYFCARHDVAYCSSSNCAKWPEYFQHWGQGTLVTVSSGGGGSGGGGSGGGGSQSVLTQPPSVSAAPGQKVTISCSGSSSNIGNNYVSWYQQLPGTAPKLLIYGHTNRPAGVPDRFSGSKSGTSASLAISGFRSEDEADYYCASWDYTLSGWVFGGGTKLTVLG VL: MQVQLVQSGAEVKKPGESLKISCKGSGYSFTSYWIAWVRQMPGKGLEYMGLIYPGDSDTKYSPSFQGQVTISVDKSVSTAYLQWSSLKPSDSAVYFCARHDVAYCSSSNCAKWPEYFQHWGQGTLVTVSSGGGGSGGGGSGGGGSQSVLTQPPSVSAAPGQKVTISCSGSSSNIGNNYVSWYQQLPGTAPKLLIYGHTNRPAGVPDRFSGSKSGTSASLAISGFRSEDEADYYCASWDYTLSGWVFGGGTKLTVLG
